Measured values: the domain aggregation screens of Martell et al. (2025)

Assay: soluble fraction after stress (log2 fold change); higher = more stays soluble; pooled small domains, quantitative proteomics
Settings: stress: 75 degC
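Further: 20 min heating vs room temperature control held 20 min.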

## HMRSVEVAAEPGMVLEDRQTGFVGAVVAVEKSGGTHLVVLEDRHGLRRGFPLGPGFWLEGRPVVLAPPP
  soluble fraction (log2): -1.01

## HMRTANREKRIEASVKMMKAGYPVGYIIARVFMYEGWEEDYRQLLIYLSEKIPKDVSNPITFEVIS
  soluble fraction (log2): -0.622

## HMRTEGNLGAKVRVLRRSQGMTQAELARRLGISPSYLNLIEHNRRSFTADLLVKLAKILPVNLKT
  soluble fraction (log2): -2.5

## HMRTITYSITPAHAGMSVERYLKQQHGYSTRTLVKLKHYPQGLQLNGQHARTVDLLQAGDTLAVTFLD
  soluble fraction (log2): -2.42

## HMRTLSAGVAGRLRADILNGLLEPGRRLGMAELTERYGAGMSPVREALSRLVGEGLVQSEGQRGFRVA
  soluble fraction (log2): -0.446

## HMRTMFGQRLRLARKRAGLSMQALADRVTPSVSAQAISKYEADQMMPSSSVLVGLGKALGVSLDFLVGGQ
  soluble fraction (log2): -1.41

## HMRTNVDISPKILEWVLSQVRNRTTNDVIETIQIWIKGEKPPTFNQVEKISKATGVPLGYFFLKTPPVED
  soluble fraction (log2): -1.34

## HMRTPLTGREEQVATLIGRGMTNSEIAESLSVDESTVKTHIGSILRKVHLRDRLQVALWFHGLPIE
  soluble fraction (log2): -0.67

## HMRTTYKTRLETLLAGPMSAGDRRFASSLLDFYNRKNRLTPGRARFVAQLEDRYSAEALAARQG
  soluble fraction (log2): -1.19

## HMRTVEQFQIRKIYAISNALGISDSRADEDELHVLVSGLTGKDSIKELTYREASVVIERLEELQ
  soluble fraction (log2): -2.22

## HMRVDDITDTILNVLKEQGGFISVTDKSSPETINKLFGVSKKTYKKAIGAIYRKKLIIIEDDGIRLNS
  soluble fraction (log2): -2.4

## HMRVDRSALDSIPGVGPGRKRTLLHHFGSARAVEASGLADLESIRGISKALARKIYDFFHPE
  soluble fraction (log2): -1.55

## HMRVELVVVPELRQQLLPEARELANSAGLQLRVRGQSPADETRTIVVTQSPAAGTRVAARSIVLVE
  soluble fraction (log2): -1.12

## HMRVPTVIGMDEGTAKATLANASLKSNIVYESDETKENGKVLSQGIEQNKEVKAGTTVEIKVNKIE
  soluble fraction (log2): 0.116

## HMRVTEVSYDKFLDMLSGGQVTVVELQENERELYFKAADENGAERIYSTGVFPDADLQKRLSESGVTF
  soluble fraction (log2): -0.14

## HMRYLHTMIRVSDLEESLNFFKLLDIHEVSRKENEQARFTLVFLSATGDEKLVENAKSPLIELTFN
  soluble fraction (log2): -0.0509

## HMRYLMPDLVNRRYEPVRSLLEARGIRFGNVIFEPYEGLPPGIVLRQDPPAGHPLPRRRTVSLVVSGPGGR
  soluble fraction (log2): -2.56

## HMRYQIAEARKLRDITQAELAEKMGTTQQTIQRYETNQVNIRMDKMIEMSEILNVSLAYLLGMSSSPEL
  soluble fraction (log2): -1.78

## HMRYVVQVATFSSKNNAIRAADDLAGFVVVSNGYYRVRTGPYADRGEANAALAKARKAGYTDAFVDTS
  soluble fraction (log2): -2.19

## HMSAAYVYVTGTRVNQRDGPSTFDRVMGVLVEGTRVQLLRDQGQWAQIRSDLGTGWLSSGFLSRNG
  soluble fraction (log2): -1.88

## HMSADKAEAAEASLKSFNLRLQAAAMEAGKTFAPVTADQYAEYKAAWGTYIRKGIEGLSESEKKTINVG
  soluble fraction (log2): -0.243

## HMSAETREELVGREGVSLTDLRPSGFALFGQEKIDVVSESEFIEEGTSVRIVSVEGSRHIVRAKR
  soluble fraction (log2): -0.0724

## HMSAISSARKEKIIEYLTDHGSARSSEIAEYVDLRPSRVRDYLGELVREDIVVAEGANRNRTYRLK
  soluble fraction (log2): -0.0533

## HMSAPGYRAVYPGMLESERQTAYELLSSSGFDVKINTSSGELEVTTDRYHEARMVMASQNIPK
  soluble fraction (log2): -0.137

## HMSAPVFRITPAGVVVNGLKRSDILTLTRIDGAMNTLPHNAGEVLVSTEGLAKGVYVITAGGKSLKFLV
  soluble fraction (log2): -1.85

## HMSAQPMEYSRFYSDVTQGRVAEVEIEGREINGRLSTGERFKTFSPETDNKALIGHLLDNGVVIEGKPP
  soluble fraction (log2): 0.255

## HMSASEKLFEARKNLNIVNVLGKNPVDRYDIVKILKHGDHYHIYDSKGNEGITYTNPKSLYPEAEFGEYQG
  soluble fraction (log2): -0.0642

## HMSASTGTVSYKSGATTVWNSPSWHQVKRYVTFGDTVQLLGKTVDQNGATWYKVGDNQWIPELYLNVAG
  soluble fraction (log2): -0.725

## HMSATEPVHFDPNKSPEDMTVEELQAGILAKMANNGPVSDQMKKTVNENIWHDSLVNWLKSF
  soluble fraction (log2): -0.164

## HMSATPQRMSIINELDSARKNLSAYDLRDSLKDKGHSFNISTIYRVLSFWIDVGVVHKMDSSNTYL
  soluble fraction (log2): -0.111

## HMSATVLVHVLGEVRKPGVVSLPEGSRVQDAITAAGGLTSRAKPGDLNLAARVSDGAQLVIGRSGSQVRTT
  soluble fraction (log2): -0.306

## HMSAVVAPLPGLIQNILVKVGDTVHAGQHVLTMEAMKMENEIQTNRDGIIKDIKVRIGDSVNEGDTLIIL
  soluble fraction (log2): 0.0725

## HMSDAGAIEPTIKEILASNPKAVEEYLAGNIKNINALIGQSMKALHGKADPQTVRNLLAKLLDEM
  soluble fraction (log2): -0.252

## HMSDAIQLEQKIGLEAIEWYLALSEQTDDKLLYQQWQSWLAADPQHQLAWSRIEQVNHGLNTL
  soluble fraction (log2): -1.03

## HMSDAVQLGLRLRAARERRGLSQQAVADALGLPRTAVTNMESGNRAVSTLELTKLAALYGQSTAFFLSP
  soluble fraction (log2): -1.19

## HMSDDVELLGRLSDREVSVLQYLSQGYSNKQISEQMFISNKTVSTYKARLLLKLNAGSLVDLIEFAKRNTL
  soluble fraction (log2): -1.35

## HMSDEINYVIQINGKNRAEAEFGANLDKESIENLALEHERIKELLNGLTVRKIIVVPKKLVNIVA
  soluble fraction (log2): -0.556

## HMSDESALLELVKQIIADNPKAVEEIRAGKEKAMGFLIGQAMKASRGSANPQIISRLVREQLG
  soluble fraction (log2): 0.57

## HMSDFDPTLILDLIKGSGEALTKREIARALGIKGGDKRIELKSHLKSMEAEGVIVKQAGGAYSVP
  soluble fraction (log2): -0.132

## HMSDFSNLNLLELNSSELDLLLRRASSQGLTQMDLLKMARSQGLSEADLIKVKGKIDTSESIKR
  soluble fraction (log2): 0.076

## HMSDFSSNLRRLRKRAGLSQDALAEKLSVARQTVSSWERGNSYPDLDMLVRISDALATDPNELLYPN
  soluble fraction (log2): -0.167

## HMSDGDFLQKIAEEILAQFPDKVKEYQKGKKGLIGFFMGELMKRSKGKADPKVATRILEEILSEKNGSS
  soluble fraction (log2): -0.0745

## HMSDGTVYGSDGVIKVNLPQSGMLRIYATDGTTLVNRWQAAGIDTISMPRGLYIVRFDNQVWKVVV
  soluble fraction (log2): -1.65

## HMSDHSSLAGKEGVAVTPLRPAGTAEIDGKRMDVVTMGDYIKAGDHIKVVKVEGNRIIVAKN
  soluble fraction (log2): 0.0173

## HMSDHYEVLGVDRNATDDQIKKAYRRLARELHPDVNDAPESQEKFKLVTHAYEVLSDPDERRKYDMG
  soluble fraction (log2): -0.0229

## HMSDIYSLFERELGRTLSSYEYEIIGKWIEKGVSEDTIKRALKEAILNGVTNFKYIDKIIYDWSKN
  soluble fraction (log2): -0.622

## HMSDLFKYSPYKTLTEEQYKITYQIIERLKTDLSNGIPRISIIDGGAGTGKSILGIFLLKLLVDAQN
  soluble fraction (log2): 0.353

## HMSDNLSASERKALSHMEGMESVRSSEVADLLGMSQRGAQKLLNRLVDKGLASSFGANRNRRYSVE
  soluble fraction (log2): 0.144

## HMSDNLTIVRAVYSGLSQRQAAATYHVSRNTVSLLLRHARNRGWLTLEDLAQLDNAAFSKSL
  soluble fraction (log2): -4.32

## HMSDPFSPTTTLKNRAKSVLSVDSFEDFKLFIKKMWQEKKEGVYQNPNVETWKDWDNISVKDAKILISLI
  soluble fraction (log2): -1.45

## HMSDPHEELMSRIARDLSIPLTRVVAEMNTIISKEFGGHIRPEGAVVILAKRSGVEFSDLLPALRENILK
  soluble fraction (log2): -1.92

## HMSDQIQQIAERIAGLRDIAGYSVEELARELGISAEEYKRYESGEVDIPIGFLYKLANKYNVELTAILT
  soluble fraction (log2): -0.289

## HMSDRFLDQEGVALSTLRPSGTVVLDSGEHLDVVTRGEFIEQGERVKVIKAESTWYVVEQIN
  soluble fraction (log2): 0.112

## HMSDRLRLGRRIRAARLEQNLSQAALAERLGISASYLNLLEHDRRSLTTVLLLKLAQVLGLELRDLAAG
  soluble fraction (log2): -2.49

## HMSDRLRPGDMVVVVGKKKRYPVFSAFDIDFVEAGDVGKVLTVKREEVVVGFPKKGEGTFTPSELNIAH
  soluble fraction (log2): -1.18

## HMSDTGQELHDALNMARRTLTILEEQAAGYTALTIPARLVLELEEKRKDVVRLETQIRSAATGTPG
  soluble fraction (log2): -0.649

## HMSDTLPRLLWNFQMAKRLDEMNGAEKRRYQLVLIHPQASEKERDYASSFAHQARMLGIEVAIRDS
  soluble fraction (log2): -0.395

## HMSDVVFRINANGLNVSGLANGERVSVYDTTGKLVTTAVSTQDNGTLNLPLKQSGGIYIARTQSGVSFKFT
  soluble fraction (log2): -0.786

## HMSDYKSYLQELVQTDKKSLSYNVVKETGPAHDKTFEVEVEVDGIIYAHGVGKSKKEAEQNAAKNAIMISA
  soluble fraction (log2): 0.3

## HMSDYLGSLSHEEKMIFNHFDEDSSTIENMAKKTELKPELISQIFLNLELRGFLRQTEGGLYEKI
  soluble fraction (log2): -0.43

## HMSDYYEVLGVTRQADAEEIKRAYRRKARQLHPDVAGPGHEEEFKEVTVAYEVLSDPEKRQAYDLGGQDAL
  soluble fraction (log2): 0.0155

## HMSEDAVKFRAAVEVENGLAQRNLNKNQAALILGVDRSYFTYIISGKKTPSPDMAKRIGLLLGFDWRVFYA
  soluble fraction (log2): -1.89

## HMSEEIKVPNFVGSTFEKAQALAQETGLEIARGEDVYSPDQEEGKITSQNPTADSVVSPGKLITVYVSKG
  soluble fraction (log2): 0.385

## HMSEIKDRLREARRNKGLSQAGLSKLLGVSQASIAAIESGRNKRPTNLVSIAKALDVSPYWLETGK
  soluble fraction (log2): -0.229

## HMSEITQTLSMIGKEVTLEIPDEKDKTKTTEVKGIVTEASFKDGTGKVKVNGEYYSIAYITSIRDT
  soluble fraction (log2): ≥ 1.04

## HMSEIVEEQNTKLKQAVSKLSKRQQEVLYLKFEEGLDYEQISKIMDLKYQSVRNLVSTAIIKIKEH
  soluble fraction (log2): -2.72

## HMSEKELTDLIERIKERRLKLEMSYQDLSDATGISKSTLQRYETGYIKKVPINQIEILAKALHTTPSYLMG
  soluble fraction (log2): -0.411

## HMSEKIDINNSNELELKQLPLTNEQIKSLIEFRRLHGEIQNIYELKNIDFFNIEKVHELKAHIEIKKII
  soluble fraction (log2): -1.03

## HMSELADDPVYTALEKAADKAGLQLTVRILNDLADAVLKRGKKKLTAAQAGKVIARAESELAKSRID
  soluble fraction (log2): 0.00292

## HMSELDASYLGQRVRYVSGFTETDPSEGLVEFRGSNWRARAEHPPLDHSGHWVIVKVESNTLWVEEKSN
  soluble fraction (log2): -1.57

## HMSENEIDELRRRFAREAMALMERKGEEVSRTRLAAELSVARARIDAVFPEESDLLEAVTAEWFA
  soluble fraction (log2): -0.477

## HMSENEVQAKVKEIVDRYAGDKSALIAILQDVQDEYRYLPKEALVSIQQQMNIPLSRVYEVATFYDAFS
  soluble fraction (log2): -0.556

## HMSEPIYTQLKEILTQKIVNGEFPPGARLPSEYELTELYHISRSTVRLALKELEASGMIVRRRGKGTFVSS
  soluble fraction (log2): -2.39

## HMSEPRYRQLATILAQEIRSNHSAGDQLPSEQALAKRFEVNRHTVRRAVDELVAAGMVTRHQGWGTQVV
  soluble fraction (log2): -0.158

## HMSEQGVITAKFASIVGNQNIQLVMFPDSVYLKGQVSSEEEKKRAETVASSLIQDRKIVNLIEFE
  soluble fraction (log2): -0.075

## HMSEQIALQFAKAKQHHTGIALKGIEALELRYKGYTGKEIAALYHTSPKSVFSWISRAKQKLRQN
  soluble fraction (log2): -0.272

## HMSEQLHALIDRLDDIPDDELKKNWPGTLRDLVDVISAELHRQGIEPAQAGMLARKVAAAQAGYMG
  soluble fraction (log2): -0.486
